Results reported in the nanobody polyreactivity screen of Harvey et al. (2022).

Experiment: yeast display, Sf9 membrane polyspecificity reagent, FACS + sequencing; frameworks hold sequencing errors
How it was run: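 Galactose-induced (36–48 hours) yeast carrying a synthetic nanobody display library were exposed to 10% biotinylated, detergent-solubilized Sf9 membrane reagent at 4 °C for 1 hour. FACS followed streptavidin microbead enrichment, using low and high (top ~1%) gates for expression (anti-HA) and reagent binding (streptavidin). Colony PCR, MiSeq 2 × 250 sequencing and CDR-length filtering followed. Labels for polyreactivity reflect the gate of origin.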

Sequence	polyreactivity (PSR sort gate)
QVQLVESGGGLVQAGGSLRLSCAASGSIVAYNAMAWYRQAPGKEWELVAAINSGSLTYYADSVTGRFTISRDNAKYTVYLPMNSLKPEDTAVYYCAAEWERWYYRYDYWGQGTQVTVSS	high polyreactivity
QVHVVESGGGLVQAGGSLGLSCAASGITFTAYAMGWYRQAPGKERELVATINSTGITNYADSVKGRFTISRDNSKNTVFLQMNSLKPEDTAVYYCAADLLDISSYDGMDYWGQGTQVTVSS	low polyreactivity
QVQLVESGGGLVQAGGSLRFSCSASGRTFLIYAMGWYRQAPGKARELVAAINFSGGNTYYADSVKGRFTISRDNAKNTVYLQMNSLKPEDTAVYYCAAGVYSFRYDYWGQGTQVTVSS	low polyreactivity
QVQLVESGGGLVQAGGSLRLSCAASGSMFANNAMGWYRQAPGKERELVAAITSGGNTDNADSVKGRFTISRDNAKYTVYLQMNSLKPEDTAVYYCAAERPPYGYLVVGYVSTQYYYWGQGTQVTVSS	low polyreactivity
QVQLVESGGGLVQAGGSLRLSCAASGSISNFYAMGWYRQAPGKEREFVAAISTRDGTKRFADSVKGRFTISRDNAKNTVYLQMNSLKPEDTAVYYCAAKGGGVWLYARIYSDYYWGQGTQVTVSS	low polyreactivity
QVQLVESGGGFVQAGGSLRLSCAASGRTFLAMGWYRQAPGKERELVAAISRTNYADSVKGRFTISRDNAKNTVYLQMNSLKPEDTAVYYCNARRSYFLRYGVNYWGQGTQVTVSS	low polyreactivity
QVQLVESGGGLVQAGGSLRLSCAASGSTFAGYAMGWYRQAPGKERELVATITYSGGTTYYADSVKGRFTISRDTAKNTVFLQMKSLKPEDTAVYYCDNKASYWWGFEYWGQGTQVTVSS	low polyreactivity
QVQLVESGGGLVQPGCSLRLSCAASGSTFESYAMGWYRQAPGKERELVAAISWRVGSTYYADSVKGRFTISRDNAKNTVYLQMNSLKPEDNAVYYCASKGWYSHYGGYDYWGQGTQVTVSS	low polyreactivity
QVQLVESGGGLVQAGGSLRLSSPASGITFDKYAMGWYRQAPGKERELVAAISRSAGSTYYADSVKGRFTISRDNEKYSVYLQMKSLKPEDCAVYLCAGDPLIYDDYYWGQGTNVTVSS	high polyreactivity
QVQLVESGGGLVQAGGSLRLSCAASGFTLSRYVMGWYRQAPGKERELVATISTDTGDTYYADSVKGRFTISRDNAKNTVYLQMNSLKPEDTAVYYCAVEEWYIYLDLYWSYYYWGQGTQVTVSS	high polyreactivity
QVQLVESGGGLVKSGGSLRLSCAASGRIFYLYAMGWYRQAPGKERELVAAISRRGGGTSYADSVKGRFTISRDNAKNTVYFQMNSLKPEDTAVYYCNTAYSLGGYWGQGTQVTVSS	high polyreactivity
QVQLVESGGGLVQAGGSLRLSCAASGSTFGYYAMGWYRQAPGKERELVAVIRRGGSTNYADSVKGRFTISRDNAKNTVYLQMNSLKPEDTAVYYCAKSQRGTVYSYYYWGQGTQVTVSS	high polyreactivity
QVHLVESGGGLDQAGGSLRLSCAASGSIYGPYAMGWYRQAPGKERELVAAIRSGGSTNYADSVKGRFTITRDNAKNTVYLLMTSLKPEDTAVYYCAAEYWGYPYDYWGQGTQVTVSS	low polyreactivity
QVQLVESGGGLVQAGGSLRLSCAASGSTSYVYAMGWYRQAPGKERELVAAISGSGGRTYYADSVKGRFTISRDNAKNTVYLQMNSLKPEDTAVYYCAADYIFRRYPVGGIYDYDYWGQGTQVTVSS	high polyreactivity
QVQLVESGGGLVQAGGSLRLSCAASGSTFDSYAMGWYRQAPGKERELVAAISTSGGSTYYADSVKGRFTISRDNAKNTVYLQMNSLKPEDTAVYYCAAYSISSRMNYWGQGSQVTVSS	high polyreactivity
QVQLVESGGGLVQAGGSLRLSCAASGLTFDYYAMGWYRQAPGKERELVAAIDWSGGSTYYADSVKGRFTISRDNAKNTVYLQMNSLKPEDSAVYYCATESDDSGMDYWGQGTQVTVSS	low polyreactivity
QVQLVESGGGLVQAGGSLRLSCAASGIIFPVYAMGWYRQAPGKERELVAAISNRAGSTYYADSVKGRFTISRDNAKNSVYLQMNSLKPEDTAVYYCAAASRRSGASSWYDYWGQGTQVTVSS	high polyreactivity
QVQLVESGGGLVQAGGSLRLSCAASGFTFFWYAMGWSRQAPGKERELVAGITYRGGSTYYADSVKGRFTISRDNAKNTVYLQMNSLKPEDTAVYYCNADVVTKHISAWWDRYYRRYYYWGQGTQVTVSS	low polyreactivity
QVQLVESGGGLVQAGGSLRLSCAASGSTFNGYAMGWYRQAPGKERELVAAITSSGSRTYYADSVKGRFTISRDNAKNTVYLQMNSLKPVDTAVYYCNAGKLARTYFRSSSLSPGDYWGQGTQVTVSS	high polyreactivity
QVQLVESGGGLVQAGGSLRLSCAASGSIFKWNAMGWYRQAPGKEWELVAAITWSGGRTYYADSVKGRFTISRDNAKNTVYLQMNSLKPEDTAVYYCAATQYRSDGWRYDYWGQGTQVTVSS	high polyreactivity

Sequence	polyreactivity (PSR sort gate)
QVQLVESGGGLVQAGGSLRLSCAASGSTFSGNAMGWYRQAPGKERELVAAITSGGSTNYADSVKGRFTISRDNAKNTVYLDMNSLKPEDTAVYYCAKRYGYRRYYTASDYWGQGTQVTVSS	low polyreactivity
QVQLVESGGGLVQAGGSLRLSCAASGFIFLRYGMGWYRPAPGKERELVASIDSTGGSTYADSVKGRFTISRDNAKNTVYLQMNSLKPEDTAVDYCAAAYYIVSERDYWGQGTQVTVSS	low polyreactivity
QVQLVESGGGLVQAGGSLRLSCAASGRIFDVYAMGWYRQAPGKERELVAAITGSGGSTYYADSVKGRFTISRDNAKNTVYLQMNSLKPEDTAVYYCNAVGIWFPIRLIVPYDYWGQGTQVTVSS	low polyreactivity
QVQLVESGVGLVQAGGSLRLSCAASGSIFIRNAMGWYRQAPGKERELVAAISGSGSSTYYADSVKGRFTISRDTAKNTVYLQMNILKPEDTAVYYCNTDRTHSYQYGGYDYWGQGTQVTVSS	low polyreactivity
QVQLVESGGGLVQAGGSLRLSCAASGRIFVANAMGWYRQAPGKERELVAAISSSGSTNYADSVKGRFTISRDNAKNTVYLQMNSLKPEDTAVYYCAKQHLSTGSWFDPFEMDYWGQGTQVTVSS	low polyreactivity
QVQLVESGGGLVQAGGSLRLSCAASGRTFGLYAMGWYRQAPGKERELVAAIDQSTGSTYYADSVKGRFTISRDNSKNTVYLQMNSLKQEDTAVYYCAAEEASTVRYYWYDYWGLGTQVTVSS	high polyreactivity
QVQLVESGGGLVQAGGSLRLSCAASGIIFWDNAMGWYRQAPGKERELVASINYSGGSTYYADSVKGRFTISRDNAKNTVYLQMNSLKPEDTAVYYCAARTVTLDDWDYAYDYWGQGTQVTVSS	low polyreactivity
QVQLVESGGGLVQAGGSLRLSCAASGFILDTYGMGWYRQAPGKERELVAAISQSDVSTYYADSVKGRFTISRYNAKNTVYLQMNSLKPEDTAVYYCAADRAGLRWFWQVLYDYWGQGTQVTVSS	low polyreactivity
QVQLVESGGGLVQAGGSLRLSCAASGSIFQIVYAMGWYRQAPGKERELVAAISRGGSTYYADSVKGRFTISRDNAKNTVYLQMNSLKPEDTAVYYCAADIVELSPRGVYHFDYWGQGTQVTVSS	high polyreactivity
QVQLVESGGGLVQAGGSLRLSCAASGSTFPHYVMGWYRQAPGKERELVAGISWSGGSTYYADSVKGRFTISRDNAKNTVYLQMNSLKPEDTAVYYCAKVLTWRGYRYNYWGQGTQVTVSS	low polyreactivity
QVHLVESGGGLVQAGGSLRLSCAASGLTFYWYVMGWYRQAPGKERELVAVITGSGGSTYYADSVKGRFTISRDNAKNTVYLQMNSLKPEDTAAYYCARGGRYNRYYYWGQGTQVTVSS	high polyreactivity
QVQLVESGGGLVQAGGSLRLSCAASGRIFGYNAMGWYRQAPGKERELVAALSWNGGSTYYADSVKGRFTISRDNAKNTVYLQMNSLKPEDTAVYYCNADPSDRRYPHTWTKMGYWGQGTQVTVSS	low polyreactivity
QVQLVESGGGLVQAGGSLRLSCAASGSIFWPNAMGWYRQAPGKERELVAAISWGTGSTYYADSVKGRFTISRDNAKNTVYLQMNSLKPEDTAVYYCAADGAYLDPYYDYWGQGTQVTVLS	low polyreactivity
QVQLVESGGGLVQAGGSLRLSCAASGSIFQGNAMGWYRQAPGKERDLVAAISGGDSTNYADSVKGRFTISRDNAKNNVYLQMNSLKPEDTAVFYCNALSHWAPASYEYDYWGQGTQVTVSS	low polyreactivity
QVQLVESGGGLVQAGGSLRLSCAASGIILRYYAMGWYRQAPGKERELVASITSSGGRTYYADSVKGRFRISRDNAKNTVYLQMNSLKPEDTAVDYCAAKWAVVSGYGYWGQGTQVTVSS	high polyreactivity
QVQLVESGGGLVQAGGSLRLSCAASGYIFHLYGMGWYRQAPGKERELVARISYRGGSTYYADSVKGRFTISRDNAMKTVYLQRNSLKPEETAVYYCAAYRRQHIIYNYWGQGTQVSVSS	high polyreactivity
QVQLVESGGGLFQAGGSLRLSCAASGFIFRDNAMGWYRQAPGKERELVAAISWSSDSTYYADSVKGRFTISRDNEKNTVYLQMNSLNPEDSAVYYCAGKGQRGYWWGFDYWGQGTQVTVSS	low polyreactivity
QVQLVDSGGGLVQAGGSLRLSCAASGRTFTWYAMGWYRQAPGKERELVSAITNGGRTYADSVKGRFTISRDNAKNTVYLQMNSLKPEDTAVYYCAKVQYRGYLPHQRGRERDYDYWGQGTQVTVSS	low polyreactivity
QVLLQERGGGLVQAGGSLRLSCAASGTISTDIRMGWYRLAPGKEREFVASIDGCSTTYYAYSVKGRFTISRDNAKNTVYLQMNSLKPEDTAMYYCAAREATEFYLYYWGQGTQVTVSS	low polyreactivity
QVQHVESGGGLVQAGGSLRLSCAASGSTFDVYALGWDRQAPGKERELVAAISESGSSTYYADSVKGRFTISRDNAKHTVYLQMNSLKPEDTAVYSCNALYYDWHPEYQVIFSYFYYWGQGTQVTVSS	low polyreactivity
